Data as given in the supplement of paper PMC10201428.
± gives the standard deviation of the averaged measurements.

Tests used:
[1] = test system: VchCAST RNA-guided transposition machinery (E. coli BL21(DE3) host, lacZ target); assay: relative integration efficiency (T-RL orientation) vs wild-type transposon end (log2 (normalized fold change)); transposon end mutated: right end (5 bp flank + 75 bp right end); higher = more efficient transposition
How it was run: (§1)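 Co-transformation of E. coli BL21(DE3) combined a pUC57 mini-transposon donor, holding barcoded pools of 1549 left-end or 1849 right-end variants, with a T7-driven plasmid encoding a CRISPR array, tniQ-cas8-cas7-cas6 and tnsA-tnsB-tnsC. After plating with 0.1 mM IPTG at 37°C for 18 h, input plasmids and genomic integration junctions were PCR-amplified and Illumina-sequenced across two biological output replicates, with four reference barcodes. Relative integration efficiency is the normalised, log-transformed output/input barcode fold change.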

[2] = test system: VchCAST RNA-guided transposition machinery (E. coli BL21(DE3) host, lacZ target); assay: relative integration efficiency (T-LR orientation) vs wild-type transposon end (log2 (normalized fold change)); transposon end mutated: right end (5 bp flank + 75 bp right end); higher = more efficient transposition
How it was run: as §1

| Sequence | relative integration efficiency (log2) [1] | relative integration efficiency (log2) [2] |
| --- | --- | --- |
| ACATTTGTTGATACAACCAATAAATGATAATTACCCCCATAAATTGATAATTGTGACACCGAATTTAACTATAACGCTCTGATCATAGTCAGACCAACATTGCTACGACCCGTATTCGCACCGACAC | -2.18 ± 0.42 | 1.59 ± 0.12 |
| ACATTTGTTGATACAACCAATAAATGATTATTACACCCATAAATTGATAATAATGACACCGAATTTAACTATAACGCTCTGATCATAGTCAGACCAACATTGCTACGACCCGTATTCGCACCGACAC | 0.0749 ± 0.43 | 3.45 ± 0.19 |
| ACATTTGTTGATACAACCAATTTATGATAATTACACCCATAAATTGATAATTATCACACCCATAAATTGATATTGCCTCTGATCATAGTCAGACCAACATTGCTACGACCCGTATTCGCACCGACAC | -0.308 ± 0.066 | -0.66 ± 0.3 |
| ACATTTGTTGATACAACCAATTTTTGATAATTACACCCAATTTATGATAATTATCACACCCAATTTATGATATTGCCTCTGATCATAGTCAGACCAACATTGCTACGACCCGTATTCGCACCGACAC | -1.89 ± 0.22 | -1.18 ± 0.21 |
| ACATTTGTTGATACAACCAGAAAATGATAATTACACCCAGAAATTGATAATTATCACACCCAGAAATTGATATTGCCTCTGATCATAGTCAGACCAACATTGCTACGACCCGTATTCGCACCGACAC | -5.0799 ± 0.0039 | -3.58 ± 1.1 |
| ACATTTGTTGATACAACCAGCAAATGATAATTACACCCATAAATTGATAATTATCACACCCATAAATTGATATTGCCTCTGATCATAGTCAGACCAACATTGCTACGACCCGTATTCGCACCGACAC | -2.72 ± 0.21 | -3.07 ± 0.51 |
| ACATTTGTTGATACAACCAGCCCATGATAATTACACCCATAAATTGATAATTATCACACCCATAAATTGATATTGCCTCTGATCATAGTCAGACCAACATTGCTACGACCCGTATTCGCACCGACAC | -4.196 ± 0.023 | -3.69 ± 0.75 |
| ACATTTGTTGATACAACCAGCCCCGTCGCCGGCACAAACGCCCGGTCGCCGGCGACACAAACGCCCGGTCGCGGTAAGAGGATCATAGTCAGACCAACATTGCTACGACCCGTATTCGCACCGACAC | -7.56 ± 1.3 | -6.28 ± 0.75 |
| ACATTTGTTGATACAACCAGCCCCTGATAATTACACCCAGCCCGTGATAATTATCACACCCAGCCCGTGATATTGCCTCTGATCATAGTCAGACCAACATTGCTACGACCCGTATTCGCACCGACAC | -6.71 ± 0.47 | -4.67 ± 2 |
| ACATTTGTTGATACAACCATAAAAACATAATTACACCCATAAATTGATAATTATCACACCCATAAATTGATATTGCCTCTGATCATAGTCAGACCAACATTGCTACGACCCGTATTCGCACCGACAC | -1.45 ± 0.33 | -1.06 ± 0.19 |
| ACATTTGTTGATACAACCATAAAAACTAAATTACACCCATAAATTGATAATTATCACACCCATAAATTGATATTGCCTCTGATCATAGTCAGACCAACATTGCTACGACCCGTATTCGCACCGACAC | -1.23 ± 0.062 | -1.55 ± 0.34 |
| ACATTTGTTGATACAACCATAAAAAGATAATTACACCCATAAATAGATAATTATCACACCCATAAATAGATATTGCCTCTGATCATAGTCAGACCAACATTGCTACGACCCGTATTCGCACCGACAC | -1.3 ± 0.18 | -0.0292 ± 0.3 |
| ACATTTGTTGATACAACCATAAAAAGATAATTACACCCATAAATTGATAATAATGACACCGAATTTAACTATAACGCTCTGATCATAGTCAGACCAACATTGCTACGACCCGTATTCGCACCGACAC | -1 ± 0.49 | 2.514 ± 0.018 |
| ACATTTGTTGATACAACCATAAAAAGATAATTACACCCATAAATTGATAATGATGACACCGAATTTAACTATAACGCTCTGATCATAGTCAGACCAACATTGCTACGACCCGTATTCGCACCGACAC | -1.33 ± 0.2 | 2.23 ± 0.057 |
| ACATTTGTTGATACAACCATAAAAAGATAATTACACCCATAAATTGATAATTGTGACACCGAATTTAACTATAACGCTCTGATCATAGTCAGACCAACATTGCTACGACCCGTATTCGCACCGACAC | -1.15 ± 0.29 | 2.38 ± 0.082 |
| ACATTTGTTGATACAACCATAAAACGATAATTACACCCATAAATGGATAATTATCACACCCAATTTAACTATAACGCTCTGATCATAGTCAGACCAACATTGCTACGACCCGTATTCGCACCGACAC | -1.18 ± 0.21 | 1.52 ± 0.035 |

| Sequence | relative integration efficiency (log2) [1] | relative integration efficiency (log2) [2] |
| --- | --- | --- |
| ACATTTGTTGATACAACCATAAAACGATAATTACACCCATAAATGGATCATTATCACACCCAATTTAACTATAACGCTCTGATCATAGTCAGACCAACATTGCTACGACCCGTATTCGCACCGACAC | -1.78 ± 0.29 | 1.06 ± 0.24 |
| ACATTTGTTGATACAACCATAAAACGATAATTACACCCATAAATTCATAATTATCACACCCAATTTAACTATAACGCTCTGATCATAGTCAGACCAACATTGCTACGACCCGTATTCGCACCGACAC | -2.21 ± 0.42 | 1.3 ± 0.2 |
| ACATTTGTTGATACAACCATAAAACGATAATTACACCCATAAATTCATCATTATCACACCCAATTTAACTATAACGCTCTGATCATAGTCAGACCAACATTGCTACGACCCGTATTCGCACCGACAC | -2.21 ± 0.32 | 1.29 ± 0.12 |
| ACATTTGTTGATACAACCATAAAACGATAATTACACCCATAAATTGATCATTATCACACCCAATTTAACTATAACGCTCTGATCATAGTCAGACCAACATTGCTACGACCCGTATTCGCACCGACAC | -1.68 ± 0.16 | 1.86 ± 0.099 |
| ACATTTGTTGATACAACCATAAAAGGATAATTACACCCATAAATGGATAATTATCACACCCATAAATGGATATTGCCTCTGATCATAGTCAGACCAACATTGCTACGACCCGTATTCGCACCGACAC | -1.1 ± 0.065 | -0.23 ± 0.13 |
| ACATTTGTTGATACAACCATAAAAGGATAATTACACCCATAAATTGATAATTATCACACCCCATTTAACTATAACGCTCTGATCATAGTCAGACCAACATTGCTACGACCCGTATTCGCACCGACAC | -1.31 ± 0.2 | 2.32 ± 0.013 |
| ACATTTGTTGATACAACCATAAAAGGATAATTACACCCATAAATTGATAATTATCCCACCCAATTTAACTATAACGCTCTGATCATAGTCAGACCAACATTGCTACGACCCGTATTCGCACCGACAC | -0.818 ± 0.21 | 1.98 ± 0.22 |
| ACATTTGTTGATACAACCATAAAAGGATAATTACACCCATAAATTGATAATTATCCCACCCCATTTAACTATAACGCTCTGATCATAGTCAGACCAACATTGCTACGACCCGTATTCGCACCGACAC | -0.775 ± 0.14 | 2.28 ± 0.097 |
| ACATTTGTTGATACAACCATAAAAGGATAATTACACCCATCAATTGATAATTATCACACCCAATTTAACTATAACGCTCTGATCATAGTCAGACCAACATTGCTACGACCCGTATTCGCACCGACAC | -2.32 ± 0.29 | 1.06 ± 0.24 |
| ACATTTGTTGATACAACCATAAAAGGATAATTACACCCATCAATTGATAATTATCACACCCCATTTAACTATAACGCTCTGATCATAGTCAGACCAACATTGCTACGACCCGTATTCGCACCGACAC | -2.2 ± 0.15 | 1.27 ± 0.19 |
| ACATTTGTTGATACAACCATAAAAGGATAATTACACCCATCAATTGATAATTATCCCACCCAATTTAACTATAACGCTCTGATCATAGTCAGACCAACATTGCTACGACCCGTATTCGCACCGACAC | -1.89 ± 0.25 | 0.901 ± 0.1 |
| ACATTTGTTGATACAACCATAAAAGGATAATTACACCCATCAATTGATAATTATCCCACCCCATTTAACTATAACGCTCTGATCATAGTCAGACCAACATTGCTACGACCCGTATTCGCACCGACAC | -1.79 ± 0.17 | 0.942 ± 0.22 |
| ACATTTGTTGATACAACCATAAAAGGATAATTACCCCCATAAATTGATAATTATCACACCCAATTTAACTATAACGCTCTGATCATAGTCAGACCAACATTGCTACGACCCGTATTCGCACCGACAC | -1.55 ± 0.26 | 1.37 ± 0.093 |
| ACATTTGTTGATACAACCATAAAAGGATAATTACCCCCATAAATTGATAATTATCACACCCCATTTAACTATAACGCTCTGATCATAGTCAGACCAACATTGCTACGACCCGTATTCGCACCGACAC | -1.46 ± 0.44 | 1.61 ± 0.2 |
| ACATTTGTTGATACAACCATAAAAGGATAATTACCCCCATAAATTGATAATTATCCCACCCAATTTAACTATAACGCTCTGATCATAGTCAGACCAACATTGCTACGACCCGTATTCGCACCGACAC | -0.765 ± 0.32 | 2.19 ± 0.4 |
| ACATTTGTTGATACAACCATAAAAGGATAATTACCCCCATAAATTGATAATTATCCCACCCCATTTAACTATAACGCTCTGATCATAGTCAGACCAACATTGCTACGACCCGTATTCGCACCGACAC | -1.2 ± 0.22 | 1.78 ± 0.039 |
